Patent US20160251436A1 (PD 1 ACQUISITION GROUP, published 2016)

T1: recombinant soluble extracellular domain (ECD) of ICOS (inducible T-cell costimulator) (R&D Systems) (UniProt Q9Y6W8 21-140, limits assumed)
T1 construct: extracellular domain
T1 sequence (looked up): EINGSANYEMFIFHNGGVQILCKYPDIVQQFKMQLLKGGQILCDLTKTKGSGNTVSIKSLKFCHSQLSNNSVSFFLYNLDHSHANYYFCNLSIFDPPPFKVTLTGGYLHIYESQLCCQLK


Experiments:
[1] = target: human Programmed Death-1 (PD-1) expressed on the cell surface (human) (UniProt Q15116); assay: flow cytometry blocking assay: HEK293 cells expressing PD-1 incubated with 10 µg/ml isotype control, washed, stained with PD-L1-Ig Alexa-488; negative control of blocking
[2] = target: T2, recombinant soluble extracellular domain (ECD) of CD28 (R&D Systems) (UniProt P10747 19-152, limits assumed); assay: ELISA, CD28 ECD coated on the plate, OD 450 nm; anti-CD28 as positive control
T2 construct: extracellular domain
Experimental: (§1) To assess selectivity of the anti-PD-1 antibodies, ELISA was used to generate dose response curves for binding of the anti-PD-1 antibodies to several immunomodulatory cell surface proteins. Recombinant soluble extracellular domains (ECDs) of ICOS (inducible T-cell costimulator), PD-1, CD28 or CTLA4 (R&D Systems, Minneapolis, Minn.) were coated onto ELISA assay plates. Binding of each anti-PD-1 antibody and each control antibody to each target protein was then assessed over a range of antibody concentrations (FIGS. 9A-9D).

[3] = target: T3, human Programmed Death-1 (PD-1) expressed on the cell surface (human, UniProt Q15116 25-288); assay: cell-based or functional assay
[4] = target: T4, recombinant soluble extracellular domain (ECD) of CTLA4 (R&D Systems) (UniProt P16410 36-161, limits assumed); assay: ELISA, CTLA4 ECD coated on the plate, OD 450 nm; anti-CTLA4 as positive control
T4 construct: extracellular domain
Experimental: as §1

[5] = target: T5, soluble extracellular domain of human PD-1 (human, UniProt Q15116 25-170); assay: BLI (ForteBio Octet Red), antibody on the biosensor, soluble PD-1 ECD as analyte
T5 construct: extracellular domain
Experimental: Biophysical characteristics of certain anti-PD-1 antibodies were analyzed by biolayer interferometry (BLI), using the ForteBio Octet Red system (Pall Corporation, Menlo Park, Calif.). The antibodies were immobilized on BLI biosensors and then incubated with the soluble extracellular domain of human PD-1. Using standard biophysics methods, apparent on-rates and off-rates were then inferred for PD-1 with anti-PD-1 antibodies.

[6] = target: T6, recombinant soluble extracellular domain (ECD) of PD-1 (R&D Systems) (UniProt Q15116 25-170); assay: ELISA, PD-1 ECD coated on the plate, antibody titrated from about 0.003 to about 13 nM, OD 450 nm
T6 construct: extracellular domain; also called PD-1 ECD
Experimental: as §1

[7] = target: T1, recombinant soluble extracellular …; assay: ELISA, ICOS ECD coated on the plate, OD 450 nm; anti-ICOS as positive control
Experimental: as §1

[8] = target: recombinant soluble extracellular domain (ECD) of PD-1 (R&D Systems) (UniProt Q15116); assay: ELISA, PD-1 ECD coated on the plate, antibody titrated from about 0.003 to about 13 nM, OD 450 nm
[9] = target: human Programmed Death-1 (PD-1) expressed on the cell surface (human) (UniProt Q15116); assay: flow cytometry blocking assay: HEK293 cells expressing PD-1 incubated with 10 µg/ml antibody, washed, stained with PD-L1-Ig Alexa-488 as the blocked ligand
[10] = target: human Programmed Death-1 (PD-1) expressed on the cell surface (human) (UniProt Q15116); assay: cell-based or functional assay
[11] = target: T3, human Programmed Death-1 (PD-1) …; assay: cell-based or functional assay; remark: listed apart in the source
[12] = target: T3, human Programmed Death-1 (PD-1) …; assay: cell-based or functional assay; remark: listed apart in the source

Sequence of human Programmed Death-1 (PD-1) expressed on the cell surface (human) (Q15116 25-288): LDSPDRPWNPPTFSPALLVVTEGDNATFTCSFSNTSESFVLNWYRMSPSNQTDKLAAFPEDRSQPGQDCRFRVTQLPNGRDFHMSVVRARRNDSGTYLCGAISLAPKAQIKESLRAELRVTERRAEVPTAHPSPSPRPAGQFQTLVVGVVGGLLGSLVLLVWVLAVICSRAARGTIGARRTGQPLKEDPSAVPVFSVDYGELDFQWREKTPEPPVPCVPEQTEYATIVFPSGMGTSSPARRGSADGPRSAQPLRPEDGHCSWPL
T3 sequence (Q15116 25-288): as above
T6 sequence (Q15116 25-170): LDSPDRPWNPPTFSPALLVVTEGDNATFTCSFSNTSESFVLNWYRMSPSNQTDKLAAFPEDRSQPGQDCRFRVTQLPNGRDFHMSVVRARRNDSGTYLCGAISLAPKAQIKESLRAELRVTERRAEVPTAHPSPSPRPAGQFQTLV
T5 sequence (Q15116 25-170): as above
T4 sequence (P16410 36-161 limits assumed): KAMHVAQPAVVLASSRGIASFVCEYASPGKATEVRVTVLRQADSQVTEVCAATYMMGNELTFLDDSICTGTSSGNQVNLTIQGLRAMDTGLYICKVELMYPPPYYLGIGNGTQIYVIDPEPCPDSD
Sequence of recombinant soluble extracellular domain (ECD) of PD-1 (R&D Systems) (UniProt Q15116) (Q15116 25-170): as the sequence (Q15116 25-170) above

| Molecule | binding result [2] | CD4 IFNγ % positive [3] | CD8 IFNγ % positive [3] | CD8 TNFα % positive [3] | binding result [4] | Kd [5] | koff [5] | kon [5] | EC50 (read off the curve) [6] | binding result [7] | Fold Induction IFN-γ (relative to isotype control; NSCLC biopsy cells, 20 µg/mL) [11] | other results |
| --- | --- | --- | --- | --- | --- | --- | --- | --- | --- | --- | --- | --- |
| isotype control mouse IgG1 (antibody) |  |  |  |  |  |  |  |  |  |  |  | percent of cells in gate Alexa Fluor 488-A+ (PD-L1-Ig staining after the antibody) [1]: 37.6%; percent of cells in gate Alexa Fluor 488-A- (PD-L1-Ig staining after the antibody) [1]: 62.4% |
| 100244_C8VH3_100245_C8VK5 (antibody, V domains shown, Mouse variable regions; cloned into pFUSE-CHIg-mG1 (murine IgG1 Fc), expressed in HEK293) VH: EVQLQESGPELVRPGASVKMSCKASGYTFTSYWMHWVKQRPGQGLEWIGMIDPSNSETSLNQKFKDKATLNVDKSTNTAYMQLSSLTSEDSAVYYCARSRGNYAYEMDYWGQGTSVTVSS VL: DIVITQTTAIMSASPGEKVTLTCSASSSVSSNYLYWYQQRPGSSPKLWIYSTSNLASGVPARFSGSGSGTSYSLTISSMEAEDAASYFCHQWSSYPPTFGSGTKLEIK | no binding (tested: about 13 nM) | 9.64 % positive | 19.9 % positive | 14.5 % positive | no binding (tested: about 13 nM) | 15.1 nM | 0.00322 s⁻¹ | 213000 M⁻¹ s⁻¹ | ~0.03 nM | no binding (tested: about 13 nM) |  |  |
| mouse anti-PD-1 cl. EH12.2H7 (antibody, from another filing, V domains shown) VH: QVQLQQSGAELAKPGASVQMSCKASGYSFTSSWIHWVKQRPGQGLEWIGYIYPSTGFTEYNQKFKDKATLTADKSSSTAYMQLSSLTSEDSAVYYCARWRDSSGYHAMDYWGQGTSVTVSS VL: DIVLTQSPASLTVSLGQRATISCRASQSVSTSGYSYMHWYQQKPGQPPKLLIKFGSNLESGIPARFSGSGSGTDFTLNIHPVEEEDTATYYCQHSWEIPYTFGGGTKLEIK |  |  |  |  |  |  |  |  |  |  |  | EC50 (read off the curve) [8]: 0.02 nM; percent of cells in gate Alexa Fluor 488-A+ (PD-L1-Ig staining after the antibody) [9]: 10.3%; percent of cells in gate Alexa Fluor 488-A- (PD-L1-Ig staining after the antibody) [9]: 89.7%; CD4 IFNγ % positive [10]: 12.8 % positive; CD8 IFNγ % positive [10]: 19.5 % positive; CD8 TNFα % positive [10]: 14.1 % positive |
| 100388_D4VH3_100389_D4VK5 (antibody, V domains shown, Mouse variable regions; cloned into pFUSE-CHIg-mG1 (murine IgG1 Fc), expressed in HEK293) VH: EVQLQESGAELVRPGASVTLSCKASGYTFTDYEMHWVKQTPVHGLEWIGVIDPGTGGTAYNQKFKVKALLTADKSSNTAYMELRSLTSEDSAVYYCTSEKFGSNYYFDYWGQGTTLTVSS VL: DIVITQTPLSLPVSLGDQASISCRSSQTIVHSDGNTYLEWYLQKPGQSPKLLIYKVSNRFSGVPDRFSGSGSGTDFTLKISRVEAEDLGVYYCFQGSHVPLTFGAGTKLEIK | no binding (tested: about 13 nM) | 21.2 % positive | 31.2 % positive | 8.56 % positive | no binding (tested: about 13 nM) | 2.69 nM | 0.000999 s⁻¹ | 371000 M⁻¹ s⁻¹ | ~0.05 nM | no binding (tested: about 13 nM) |  |  |
| 100413_E1VH9_100414_E1VK5 (antibody, V domains shown, Mouse variable regions; cloned into pFUSE-CHIg-mG1 (murine IgG1 Fc), expressed in HEK293) VH: EVQLQESGPSLVQPSQSLSITCTVSGFSLTSYGVHWVRQSPGKGLEWLGVIWRGGNTDYNAAFMSRLSITKDNSKSQVFFKMNSLQADDTAIYYCAASMIGGYWGQGTTLTVSS VL: DIVLTQTPLSLPVSLGDQASISCRSSQSIVHSNGNTYLEWYLQKPGQSPKLLIYKVSNRFSGVPDRFSGSGSGTNFTLKISRVEAEDLGVYYCFQGSHVPLTFGAGTKLELK | no binding (tested: about 13 nM) | 20.2 % positive | 27 % positive | 11.1 % positive | no binding (tested: about 13 nM) | 58.9 nM | 0.0299 s⁻¹ | 507000 M⁻¹ s⁻¹ | ~0.06 nM | no binding (tested: about 13 nM) |  |  |
| 244C8-1 (100244_C8_HC1 + 100245_C8_LC1) (antibody, V domains shown) VH: QVQLVQSGAEVKKPGASVKVSCKASGYTFTSYWMHWVRQAPGQGLEWMGMIDPSNSETSLNQKFQGRVTMTVDKSTNTVYMELSSLRSEDTAVYYCARSRGNYAYEMDYWGQGTLVTVSS VL: EIVLTQSPATLSLSPGERATLSCRASSSVSSNYLYWYQQKPGQAPRLLIYSTSNRATGIPARFSGSGSGTDYTLTISSLEPEDFAVYYCHQWSSYPPTFGQGTKLEIK |  |  |  |  |  |  |  |  |  |  | 8.04 fold |  |
| 244C8-3 (100244_C8_HC2 + 100245_C8_LC1) (antibody, V domains shown) VH: EVQLVQSGAEVKKPGASVKVSCKASGYTFTSYWMHWVRQAPGQGLEWMGMIDPSNSETSLNQKFQGRVTLNVDKSTNTAYMELSSLRSEDTAVYYCARSRGNYAYEMDYWGQGTLVTVSS VL: EIVLTQSPATLSLSPGERATLSCRASSSVSSNYLYWYQQKPGQAPRLLIYSTSNRATGIPARFSGSGSGTDYTLTISSLEPEDFAVYYCHQWSSYPPTFGQGTKLEIK |  |  |  |  |  |  |  |  |  |  | 7.79 fold |  |
| 388D4-2 (100388_D4_HC3 + 100389_D4_LC3) (antibody, V domains shown) VH: EVQLVQSGAEVKKPGASVKVSCKASGYTFTDYEMHWVRQAPGQRLEWMGVIDPGTGGTAYNQKFQGRVTITADKSASTAYMELSSLRSEDTAVYYCTSEKFGSNYYFDYWGQGTLVTVSS VL: DIVMTQTPLSSPVTLGQPASISCRSSQTIVHSDGNTYLEWYQQRPGQPPRLLIYKVSNRFSGVPDRFSGSGAGTDFTLKISRVEAEDVGVYYCFQGSHVPLTFGQGTKLEIK |  |  |  |  |  |  |  |  |  |  | 7.58 fold | Fold Induction IFN-γ (relative to anti-CD3 + anti-CD28 only; antibody at 5 ug/mL) [12]: 2.06 fold; Fold Induction IFN-γ (relative to anti-CD3 + anti-CD28 only; antibody at 10 ug/mL) [12]: 1.82 fold |
| 388D4-3 (100388_D4_HC1 + 100389_D4_LC3) (antibody, V domains shown) VH: EVQLVQSGAEVKKPGASVKVSCKASGYTFTDYEMHWVRQAPGQGLEWMGIIDPGTGGTAYNQKFQGRVTMTADKSTSTVYMELSSLRSEDTAVYYCTSEKFGSNYYFDYWGQGTLVTVSS VL: DIVMTQTPLSSPVTLGQPASISCRSSQTIVHSDGNTYLEWYQQRPGQPPRLLIYKVSNRFSGVPDRFSGSGAGTDFTLKISRVEAEDVGVYYCFQGSHVPLTFGQGTKLEIK |  |  |  |  |  |  |  |  |  |  | 7.2 fold |  |
| 100246_A10VH1_100247_A10VK3 (antibody, V domains shown, Mouse variable regions; cloned into pFUSE-CHIg-mG1 (murine IgG1 Fc), expressed in HEK293) VH: EVQLQESGPGLVKPSQSLSLTCTVTGYSITSDYAWNWIRQFPGNKLEWMGYITYSGSPTYNPSLKSQFSITRDTSKNQFFLQLNSLTTEDTATYYCARGLGGHYFDYWGQGTTLTVSS VL: DIVLTQSPDTLSVTPGDRVSLSCRASQSISDYLHWYQQKSHESPRLLIKYASQSISGIPSRFSGSGSGSDFTLSINSVEPEDVGVYYCQNGHSYPYTFGGGTKLELK | no binding (tested: about 13 nM) | 20.3 % positive | 26.2 % positive | 14.9 % positive | no binding (tested: about 13 nM) | 76.4 nM | 0.0123 s⁻¹ | 161000 M⁻¹ s⁻¹ | ~0.04 nM | no binding (tested: about 13 nM) |  |  |
| 100413_D2VH9_100414_D2VK6 (antibody, V domains shown, Mouse variable regions; cloned into pFUSE-CHIg-mG1 (murine IgG1 Fc), expressed in HEK293) VH: EVQLQESGPDLVKPSQSLSLTCTVTGYSITSGYSWHWIRQFPGNKLEWMGFIHYSGDTNYNPSLKSRFSITRDTSKNQFFLHLNSVTPEDTATYYCASPSRLLFDYWGHGTTLTVSS VL: DIVMTQSPSSLTVTAGEKVTMSCKSSQSLLNSGTQKNYLTWYQQKPGQPPKLLIYWASTRESGVPDRFTGSGSGTDFTLTISSVQAEDLAVYYCQNDYSYPLTFGAGTKLEIK |  |  |  |  |  | 8.2 nM | 0.00226 s⁻¹ | 275000 M⁻¹ s⁻¹ |  |  |  |  |
